Target: enzyme acceptor (EA) fragment of β-galactosidase (UniProt P00722 2-1024 = β-galactosidase, limits assumed)
Assay: cell-based or functional assay

Chain of enzyme acceptor (EA) fragment of β-galactosidase (P00722 other isoform, or with tags, fused parts or gaps limits assumed): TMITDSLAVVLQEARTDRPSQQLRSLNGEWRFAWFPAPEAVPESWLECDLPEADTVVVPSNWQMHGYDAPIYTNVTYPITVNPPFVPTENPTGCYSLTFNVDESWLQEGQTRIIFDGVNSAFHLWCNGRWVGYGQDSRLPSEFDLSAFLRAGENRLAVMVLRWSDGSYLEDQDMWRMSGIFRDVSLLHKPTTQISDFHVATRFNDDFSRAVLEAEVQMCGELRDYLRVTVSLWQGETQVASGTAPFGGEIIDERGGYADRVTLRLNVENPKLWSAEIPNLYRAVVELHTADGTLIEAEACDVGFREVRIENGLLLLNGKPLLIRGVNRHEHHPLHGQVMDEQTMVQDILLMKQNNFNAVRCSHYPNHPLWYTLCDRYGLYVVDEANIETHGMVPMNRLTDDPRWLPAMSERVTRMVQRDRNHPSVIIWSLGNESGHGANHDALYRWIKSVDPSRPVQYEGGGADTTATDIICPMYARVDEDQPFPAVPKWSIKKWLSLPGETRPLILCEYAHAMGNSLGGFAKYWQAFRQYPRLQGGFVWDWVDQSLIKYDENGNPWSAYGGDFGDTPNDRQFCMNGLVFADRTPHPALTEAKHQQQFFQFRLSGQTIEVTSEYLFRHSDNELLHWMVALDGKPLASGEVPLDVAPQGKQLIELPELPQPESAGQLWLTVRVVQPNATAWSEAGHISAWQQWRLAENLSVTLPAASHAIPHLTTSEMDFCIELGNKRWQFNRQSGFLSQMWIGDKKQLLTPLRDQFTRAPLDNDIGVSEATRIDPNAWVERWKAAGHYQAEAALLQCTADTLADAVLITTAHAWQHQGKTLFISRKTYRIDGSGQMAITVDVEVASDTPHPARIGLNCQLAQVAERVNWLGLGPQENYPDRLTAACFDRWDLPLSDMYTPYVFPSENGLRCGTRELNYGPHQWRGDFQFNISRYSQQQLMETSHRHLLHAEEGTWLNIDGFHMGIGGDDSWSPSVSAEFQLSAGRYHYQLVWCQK

| Binder | complementation activity (β-galactosidase activity after ED + EA incubation) relative to native 90 mer ED 28 (SEQ ID 17), ED 0.0123 nM, 60 min [%] | complementation activity relative to native 90 mer ED 28 (SEQ ID 17), at the same concentration (0.0123 nM) [%] |
| --- | --- | --- |
| SLAVVLQRRDWENPGVTQLNRLAAHPPFASWRNSEEA [37 mer ED (SEQ ID NO 1), short enzyme donor fragment of β-galactosidase] | 45 |  |
| SLAVVLQRRDWENPGVTQLNKLAAHPPFASWRNSEEARTDCPSQQL [46 mer ED (SEQ ID NO 10)] |  | 72 |
